Measured values from patent US20210388087A1 (Chugai, published 2021).
Where a chain is given by its changes, count along the chain named.

B1: CE115HA000/GLS3000 S27eL (antibody, IgG1, name in Kabat numbering, V domains shown)
VH: QVQLVESGGGVVQPGRSLRLSCAASGFTFSNAWMHWVRQAPGKGLEWVAQIKAKSNNYATYYAESVKGRFTISRDDSKNSLYLQMNSLKTEDTAVYYCRYVHYGAYYGVDAWGQGTTVTVSS
VL: DIVMTQSPLSLPVTPGEPASISCRSSQSLVHLNRNTYLHWYQQKPGQAPRLLIYKVSNRFSGVPDRFSGSGSGTDFTLKISRVEAEDVGVYYCGQGTQVPYTFGQGTKLEIK
notes: one-arm IgG1
B2: CE115HA000/GLS3000 S52P (antibody, IgG1, name in Kabat numbering, V domains shown)
VH: B1 VH
VL: B1 VL with L32S, S57P
notes: one-arm IgG1
B3: CE115HA000/GLS3000 T31K (antibody, IgG1, name in Kabat numbering, V domains shown)
VH: B1 VH
VL: B1 VL with L32S, T36K
notes: one-arm IgG1
B4: CE115HA000/GLS3000 T31I (antibody, IgG1, name in Kabat numbering, V domains shown)
VH: B1 VH
VL: B1 VL with L32S, T36I
notes: one-arm IgG1
B5: CE115HA000/GLS3000 S27eN (antibody, IgG1, name in Kabat numbering, V domains shown)
VH: B1 VH
VL: B1 VL with L32N
notes: one-arm IgG1
B6: CE115HA000/GLS3000 S56G (antibody, IgG1, name in Kabat numbering, V domains shown)
VH: B1 VH
VL: B1 VL with L32S, S61G
notes: one-arm IgG1
B7: CE115HA000/GLS3000 T31D (antibody, IgG1, name in Kabat numbering, V domains shown)
VH: B1 VH
VL: B1 VL with L32S, T36D
notes: one-arm IgG1
B8: CE115HA000/GLS3000 T92I (antibody, IgG1, name in Kabat numbering, V domains shown)
VH: B1 VH
VL: B1 VL with L32S, T97I
notes: one-arm IgG1
B9: CE115HA000/GLS3000 S56D (antibody, IgG1, name in Kabat numbering, V domains shown)
VH: B1 VH
VL: B1 VL with L32S, S61D
notes: one-arm IgG1
B10: CE115HA000/GLS3000 T31P (antibody, IgG1, name in Kabat numbering, V domains shown)
VH: B1 VH
VL: B1 VL with L32S, T36P
notes: one-arm IgG1
B11: CE115HA000/GLS3000 S56F (antibody, IgG1, name in Kabat numbering, V domains shown)
VH: B1 VH
VL: B1 VL with L32S, S61F
notes: one-arm IgG1
B12: CE115HA000/GLS3000 S56W (antibody, IgG1, name in Kabat numbering, V domains shown)
VH: B1 VH
VL: B1 VL with L32S, S61W
notes: one-arm IgG1
B13: CE115HA000/GLS3000 S27eT (antibody, IgG1, name in Kabat numbering, V domains shown)
VH: B1 VH
VL: B1 VL with L32T
notes: one-arm IgG1
B14: CE115HA000/GLS3000 S56P (antibody, IgG1, name in Kabat numbering, V domains shown)
VH: B1 VH
VL: B1 VL with L32S, S61P
notes: one-arm IgG1
B15: CE115HA000/GLS3000 S52Q (antibody, IgG1, name in Kabat numbering, V domains shown)
VH: B1 VH
VL: B1 VL with L32S, S57Q
notes: one-arm IgG1
B16: CE115HA000/GLS3000 T92E (antibody, IgG1, name in Kabat numbering, V domains shown)
VH: B1 VH
VL: B1 VL with L32S, T97E
notes: one-arm IgG1
B17: CE115HA000/GLS3000 S56M (antibody, IgG1, name in Kabat numbering, V domains shown)
VH: B1 VH
VL: B1 VL with L32S, S61M
notes: one-arm IgG1
B18: CE115HA000/GLS3000 S56Y (antibody, IgG1, name in Kabat numbering, V domains shown)
VH: B1 VH
VL: B1 VL with L32S, S61Y
notes: one-arm IgG1
B19: CE115HA000/GLS3000 S27eR (antibody, IgG1, name in Kabat numbering, V domains shown)
VH: B1 VH
VL: B1 VL with L32R
notes: one-arm IgG1
B20: CE115HA000/GLS3000 T31E (antibody, IgG1, name in Kabat numbering, V domains shown)
VH: B1 VH
VL: B1 VL with L32S, T36E
notes: one-arm IgG1
B21: CE115HA000/GLS3000 T92L (antibody, IgG1, name in Kabat numbering, V domains shown)
VH: B1 VH
VL: B1 VL with L32S, T97L
notes: one-arm IgG1
B22: CE115HA000/GLS3000 T92A (antibody, IgG1, name in Kabat numbering, V domains shown)
VH: B1 VH
VL: B1 VL with L32S, T97A
notes: one-arm IgG1
B23: CE115HA000/GLS3000 S56H (antibody, IgG1, name in Kabat numbering, V domains shown)
VH: B1 VH
VL: B1 VL with L32S, S61H
notes: one-arm IgG1
B24: CE115HA000/GLS3000 S27eP (antibody, IgG1, name in Kabat numbering, V domains shown)
VH: B1 VH
VL: B1 VL with L32P
notes: one-arm IgG1
B25: CE115HA000/GLS3000 S52D (antibody, IgG1, name in Kabat numbering, V domains shown)
VH: B1 VH
VL: B1 VL with L32S, S57D
notes: one-arm IgG1
B26: CE115HA000/GLS3000 S56N (antibody, IgG1, name in Kabat numbering, V domains shown)
VH: B1 VH
VL: B1 VL with L32S, S61N
notes: one-arm IgG1
B27: CE115HA000/GLS3000 S56E (antibody, IgG1, name in Kabat numbering, V domains shown)
VH: B1 VH
VL: B1 VL with L32S, S61E
notes: one-arm IgG1
B28: CE115HA000/GLS3000 S56I (antibody, IgG1, name in Kabat numbering, V domains shown)
VH: B1 VH
VL: B1 VL with L32S, S61I
notes: one-arm IgG1
B29: CE115HA000/GLS3000 S56L (antibody, IgG1, name in Kabat numbering, V domains shown)
VH: B1 VH
VL: B1 VL with L32S, S61L
notes: one-arm IgG1
B30: CE115HA000/GLS3000 S56A (antibody, IgG1, name in Kabat numbering, V domains shown)
VH: B1 VH
VL: B1 VL with L32S, S61A
notes: one-arm IgG1
B31: CE115HA000/GLS3000 S27eY (antibody, IgG1, name in Kabat numbering, V domains shown)
VH: B1 VH
VL: B1 VL with L32Y
notes: one-arm IgG1
B32: CE115HA000/GLS3000 T31N (antibody, IgG1, name in Kabat numbering, V domains shown)
VH: B1 VH
VL: B1 VL with L32S, T36N
notes: one-arm IgG1
B33: CE115HA000/GLS3000 S27eM (antibody, IgG1, name in Kabat numbering, V domains shown)
VH: B1 VH
VL: B1 VL with L32M
notes: one-arm IgG1
B34: CE115HA000/GLS3000 S56V (antibody, IgG1, name in Kabat numbering, V domains shown)
VH: B1 VH
VL: B1 VL with L32S, S61V
notes: one-arm IgG1
B35: CE115HA000/GLS3000 S56R (antibody, IgG1, name in Kabat numbering, V domains shown)
VH: B1 VH
VL: B1 VL with L32S, S61R
notes: one-arm IgG1
B36: CE115HA000/GLS3000 S52Y (antibody, IgG1, name in Kabat numbering, V domains shown)
VH: B1 VH
VL: B1 VL with L32S, S57Y
notes: one-arm IgG1
B37: CE115HA000/GLS3000 S27eV (antibody, IgG1, name in Kabat numbering, V domains shown)
VH: B1 VH
VL: B1 VL with L32V
notes: one-arm IgG1
B38: CE115HA000/GLS3000 S56T (antibody, IgG1, name in Kabat numbering, V domains shown)
VH: B1 VH
VL: B1 VL with L32S, S61T
notes: one-arm IgG1
B39: CE115HA000/GLS3000 S27eW (antibody, IgG1, name in Kabat numbering, V domains shown)
VH: B1 VH
VL: B1 VL with L32W
notes: one-arm IgG1
B40: CE115HA000/GLS3000 T92D (antibody, IgG1, name in Kabat numbering, V domains shown)
VH: B1 VH
VL: B1 VL with L32S, T97D
notes: one-arm IgG1
B41: CE115HA000/GLS3000 S52A (antibody, IgG1, name in Kabat numbering, V domains shown)
VH: B1 VH
VL: B1 VL with L32S, S57A
notes: one-arm IgG1
B42: CE115HA000/GLS3000 S56K (antibody, IgG1, name in Kabat numbering, V domains shown)
VH: B1 VH
VL: B1 VL with L32S, S61K
notes: one-arm IgG1
B43: CE115HA000/GLS3000 S27eQ (antibody, IgG1, name in Kabat numbering, V domains shown)
VH: B1 VH
VL: B1 VL with L32Q
notes: one-arm IgG1
B44: CE115HA000/GLS3000 S56Q (antibody, IgG1, name in Kabat numbering, V domains shown)
VH: B1 VH
VL: B1 VL with L32S, S61Q
notes: one-arm IgG1

Biological target: T1, CD3 epsilon homodimer protein (UniProt P07766 23-126)
T1 construct: also called CD3 (CD3 epsilon)
Experiment: SPR, antibody over immobilised CD3e homodimer;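 also: SPR at 25 °C with CD3 epsilon homodimer amine-coupled to a CM4 sensor chip and antibody flowed over as analyte in HBS-EP+ running buffer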
Protocol: An appropriate amount of CD3 epsilon homodimer protein was immobilized onto Sensor chip CM4 (GE Healthcare Japan Corp.) by the amine coupling method. Then, the antibody having an appropriate concentration was injected thereto as an analyte and allowed to interact with the CD3 epsilon homodimer protein on the sensor chip. Then, the sensor chip was regenerated by the injection of 10 mmol/L glycine-HCl (pH 1.5). The assay was conducted at 25 degrees C., and HBS-EP+(GE Healthcare Japan Corp.) was used as a running buffer. […] Each parameter was calculated using Biacore T200 Evaluation Software (GE Healthcare Japan Corp.).

T1 sequence (P07766 23-126): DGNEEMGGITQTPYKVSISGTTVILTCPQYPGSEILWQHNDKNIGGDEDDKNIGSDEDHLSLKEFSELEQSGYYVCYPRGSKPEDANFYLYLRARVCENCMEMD

Compared with B1, B2 is higher in “KD ratio to GLS3000” value: 1.06 for the first, 7.38 for the second.

Compared with B3, B4 is higher in “KD ratio to GLS3000” value: 0.88 for the first, 1.1 for the second.

First: B5
Second: B6
The “KD ratio to GLS3000” value of the first is higher: 1.01 for the first, 0.99 for the second.

First: B7
Second: B8
The “KD ratio to GLS3000” value of the first is higher: 30.9 for the first, 1.91 for the second.

First: B9
Second: B10
The “KD ratio to GLS3000” value of the first is lower: 1.11 for the first, 10.8 for the second.

B11 and B12 are the same in “KD ratio to GLS3000” value: 1.12 for the first, 1.12 for the second.

B13 and B14 are the same in “KD ratio to GLS3000” value: 0.98 for the first, 0.98 for the second.

Compared with B15, B16 is higher in “KD ratio to GLS3000” value: 1.01 for the first, 19.6 for the second.

First: B17
Second: B18
The “KD ratio to GLS3000” value of the first is lower: 0.93 for the first, 1.1 for the second.

Compared with B19, B20 is higher in “KD ratio to GLS3000” value: 1.35 for the first, 1.59 for the second.

Going from B21 to B22, the “KD ratio to GLS3000” value falls from 1.61 to 1.35.

First: B23
Second: B24
The “KD ratio to GLS3000” value of the first is lower: 0.96 for the first, 1.06 for the second.

Compared with B25, B26 is lower in “KD ratio to GLS3000” value: 0.94 for the first, 0.9 for the second.

Going from B27 to B28, the “KD ratio to GLS3000” value rises from 0.91 to 1.01.

Going from B29 to B30, the “KD ratio to GLS3000” value rises from 1.03 to 1.18.

Going from B31 to B32, the “KD ratio to GLS3000” value rises from 1.1 to 4.46.

First: B33
Second: B34
The “KD ratio to GLS3000” value of the first is higher: 1.11 for the first, 0.94 for the second.

Going from B35 to B36, the “KD ratio to GLS3000” value falls from 1.15 to 1.02.

First: B37
Second: B38
The “KD ratio to GLS3000” value of the first is lower: 0.95 for the first, 1.01 for the second.

First: B39
Second: B40
The “KD ratio to GLS3000” value of the first is lower: 1.32 for the first, 11.2 for the second.

Going from B41 to B42, the “KD ratio to GLS3000” value rises from 0.9 to 1.21.

First: B43
Second: B44
The “KD ratio to GLS3000” value of the first is higher: 1.08 for the first, 0.97 for the second.
